Test results: patent US7205275 (dated 2007)
Where no end group is shown, it is not given here. [ ]: non-standard residue; d: D form. Fc = immunoglobulin Fc domain fused to the peptide (peptibody)

Experiments:
mouse Ang-2 [1] = biological target: T1, mouse Ang-2 (mouse, UniProt O35608); assay: SPR
T1 chain: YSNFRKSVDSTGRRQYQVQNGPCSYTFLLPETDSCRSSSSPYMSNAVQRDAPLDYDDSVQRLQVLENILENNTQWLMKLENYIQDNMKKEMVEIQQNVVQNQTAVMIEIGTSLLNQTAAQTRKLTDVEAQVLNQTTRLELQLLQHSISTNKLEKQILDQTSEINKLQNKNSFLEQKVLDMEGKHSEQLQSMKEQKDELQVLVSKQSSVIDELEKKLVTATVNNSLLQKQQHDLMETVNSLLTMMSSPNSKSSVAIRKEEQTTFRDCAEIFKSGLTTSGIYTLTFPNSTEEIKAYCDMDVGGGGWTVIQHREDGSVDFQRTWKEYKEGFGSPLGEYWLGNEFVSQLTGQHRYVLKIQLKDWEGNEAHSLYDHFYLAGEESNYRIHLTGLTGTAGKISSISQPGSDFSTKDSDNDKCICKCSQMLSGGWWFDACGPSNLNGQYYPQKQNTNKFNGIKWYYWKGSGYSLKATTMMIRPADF

human Ang-2 [2] = biological target: T2, human Ang-2 (human, UniProt O15123); assay: SPR
T2 chain: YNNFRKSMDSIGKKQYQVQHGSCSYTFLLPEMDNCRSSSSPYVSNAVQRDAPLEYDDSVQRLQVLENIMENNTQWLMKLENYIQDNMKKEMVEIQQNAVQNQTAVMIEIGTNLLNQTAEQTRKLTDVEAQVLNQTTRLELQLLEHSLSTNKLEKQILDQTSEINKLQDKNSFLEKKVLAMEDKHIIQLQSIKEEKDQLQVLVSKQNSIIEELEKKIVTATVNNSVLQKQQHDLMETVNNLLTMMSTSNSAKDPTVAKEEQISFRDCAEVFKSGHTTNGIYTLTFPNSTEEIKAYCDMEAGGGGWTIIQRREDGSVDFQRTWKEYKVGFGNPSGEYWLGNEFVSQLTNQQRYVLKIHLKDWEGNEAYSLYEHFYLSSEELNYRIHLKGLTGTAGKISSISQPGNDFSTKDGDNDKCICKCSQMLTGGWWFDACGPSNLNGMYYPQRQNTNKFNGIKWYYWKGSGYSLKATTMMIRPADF

mouse Ang-2 [3] = biological target: T1, mouse Ang-2; assay: ELISA
human Ang-1 [4] = biological target: T3, human Ang-1 (human, UniProt Q15389); assay: ELISA
T3 chain: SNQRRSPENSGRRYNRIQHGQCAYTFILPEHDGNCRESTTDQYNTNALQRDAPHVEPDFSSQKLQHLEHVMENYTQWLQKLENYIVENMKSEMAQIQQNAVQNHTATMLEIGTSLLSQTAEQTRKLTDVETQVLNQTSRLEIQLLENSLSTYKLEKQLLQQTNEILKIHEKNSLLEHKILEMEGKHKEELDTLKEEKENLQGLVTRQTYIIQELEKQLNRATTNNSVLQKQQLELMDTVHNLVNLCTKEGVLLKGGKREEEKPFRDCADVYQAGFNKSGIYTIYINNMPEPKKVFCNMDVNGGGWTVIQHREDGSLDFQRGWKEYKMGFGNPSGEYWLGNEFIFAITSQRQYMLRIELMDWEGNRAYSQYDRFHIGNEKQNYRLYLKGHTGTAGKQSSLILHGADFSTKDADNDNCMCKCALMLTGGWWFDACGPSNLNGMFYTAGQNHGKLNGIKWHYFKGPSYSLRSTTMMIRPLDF

human Ang-2 [5] = biological target: T2, human Ang-2; assay: ELISA
mouse Ang-2 [6] = biological target: T1, mouse Ang-2; assay: competition ELISA vs Tie-2
human Ang-1 [7] = biological target: T3, human Ang-1; assay: competition ELISA vs Tie-2
human Ang-2 [8] = biological target: T2, human Ang-2; assay: competition ELISA vs Tie-2

- Kd (mouse Ang-2 [1]): 0.6 nM
- Kd (human Ang-2 [2]): 0.67 nM
- EC50 (mouse Ang-2 [3]): 0.07 nM
- binding result (human Ang-1 [4]): no binding
- EC50 (human Ang-2 [5]): 0.03 nM
- IC50 (mouse Ang-2 [6]): 0.72 nM
- IC50 (human Ang-1 [7]): > 1000 nM
- IC50 (human Ang-2 [8]): 0.85 nM
B1: Con4 (N) (peptide)
chain: MGAQQEECEWDPWTCEHMLEGGGGG[Fc]
modifications: not fully specified (bridges); printed as MGAQQEECEWDPWTCEHMLEGGGGG-Fc; cysteine pairing not given here; also: Fc fusion domain at position 26
